Data: paper PMC7714071, “Interaction of amyloid beta with humanin and acetylcholinesterase is modulated by ATP” (FEBS Open Bio, 2020)

Key:
[1] = system: Aβ from H1299 cell-conditioned media; experiment: ELISA, HN (endogenous and exogenously added) and AChE bound to Aβ from H1299 media on 82E1 antibody; format: binding, human; details: H1299 cell-conditioned media, 82E1; Fig. 6
Procedure: (§1) Human NSCLC cell lines, A549 (ATCC CCL‐185) and H1299 (ATCC CRL‐5803), were purchased from the American Type Culture Collection (ATCC, Manassas, VA, USA). Cells were seeded as we reported earlier in 5 mL HyClone Dulbecco's modified Eagle's medium/nutrient mixture F‐12 (DMEM/F12) (GE Healthcare Life Sciences, Pittsburgh, PA, USA), supplemented with 10% Fetalgro bovine growth serum (FBS; RMBIO, Missoula, MT, USA), 50 U·mL^−1 penicillin, and […] streptomycin (Invitrogen, Life Technologies, Carlsbad, CA, USA) in 25‐cm^2 tissue culture flasks, and allowed to grow overnight in an incubator at 37 °C, 95% humidity, and 5% CO2. The cells were counted after trypan blue staining, with a hemocytometer.
(§2) ELISAs were carried out as we previously reported. […] TBST was then used to wash the wells 4× before proceeding in one of two ways: (a) biotinylated samples were analyzed by adding 100 µL streptavidin–HRP conjugate in TBST (1 : 2500 dilution) to the samples followed by incubation for 3 h at RT on a shaker, or (b) samples without biotin were analyzed by adding 100 µL TBST containing the primary antibody as per the manufacturer's recommendation, incubating for 3 h at RT on a shaker, followed by washing the wells 4× with TBST. […] The reaction was stopped with 100 µL 2 M H2SO4 after incubating at RT for 0.5–15 min, resulting in a yellow color change, measured by absorbance at 450 nm. […]

[2] = system: AChE-Aβ complex (H1299 cell-conditioned media); experiment: ELISA, AChE found in a complex with Aβ in H1299 cell-conditioned media; format: binding, human; details: Fig. 5C,D
Procedure: as §1, §2

Aβ40 = details: HN and AChE compared; cited from earlier work
Description: Amino acid residues involved in direct interactions between HN and Aβ40 were identified previously by molecular modeling. The specific epitopes at the binding interface between HN and Aβ40 were identified, by proteolytic epitope excision and extraction in addition to affinity–mass spectrometric data analysis, to be HN (5–15) and Aβ (17–28). […] Inhibiting the 17–28 region of Aβ reduced aggregation of the neurotoxic amyloid fibrils and related cytotoxicity in SH‐SY5Y, a human neuroblastoma cell ... || Humanin has been previously reported to bind amino acid residues 17–28 of Aβ (Fig. 1). AChE is also known to bind Aβ (1–16) and the Aβ (12–28) region (Fig. 1). Since the binding sites of AChE and HN on Aβ are overlapping, we previously investigated whether HN and AChE can simultaneously bind Aβ [79].

B1: acetylcholinesterase (protein)
chain: EGREDAELLVTVRGGRLRGIRLKTPGGPVSAFLGIPFAEPPMGPRRFLPPEPKQPWSGVVDATTFQSVCYQYVDTLYPGFEGTEMWNPNRELSEDCLYLNVWTPYPRPTSPTPVLVWIYGGGFYSGASSLDVYDGRFLVQAERTVLVSMNYRVGAFGFLALPGSREAPGNVGLLDQRLALQWVQENVAAFGGDPTSVTLFGESAGAASVGMHLLSPPSRGLFHRAVLQSGAPNGPWATVGMGEARRRATQLAHLVGCPPGGTGGNDTELVACLRTRPAQVLVNHEWHVLPQESVFRFSFVPVVDGDFLSDTPEALINAGDFHGLQVLVGVVKDEGSYFLVYGAPGFSKDNESLISRAEFLAGVRVGVPQVSDLAAEAVVLHYTDWLHPEDPARLREALSDVVGDHNVVCPVAQLAGRLAAQGARVYAYVFEHRASTLSWPLWMGVPHGYEIEFIFGIPLDPSRNYTAEEKIFAQRLMRYWANFARTGDPNEPRDPKAPQWPPYTAGAQQYVSLDLRPLEVRRGLRAQACAFWNRFLPKLLSATDTLDEAERQWKAEFHRWSSYMVHWKNQFDHYSKQDRCSDL
[1]
  AChE bound to Aβ: barely detectable levels
[2]
  AChE detected in complex with Aβ: No AChE was detected above background
Aβ40
  affinity for Aβ40: comparable affinities
